Data published in patent US20120122765A1, “COMPOUNDS AND RELATED METHODS FOR MANIPULATING PARP-1-DEPENDENT CELL DEATH” (priority 2010, published 2012).
Like-named read-outs stand apart in the source and are kept apart here.

Experiments:
PAR [1] = experiment: dot-blot assay of AIF peptides with 32P-labeled PAR; type: binding; details: for binding to 32P-labeled automodified PARP-1 or 32P-labeled purified PAR: peptides spanning only amino acids 567-592; for binding to PAR: peptides, 100 nM purified 32P-labeled PAR
Experimental: To determine whether these putative binding sites are in fact responsible for AIF binding to PAR, Applicants performed a dot-blot assay with peptides corresponding to these motifs in the presence of 100 nM purified ^32P-labeled PAR. FIG. 5 comprises black and white photos of representative dot-blot assay for full length WT-AIF, three AIF peptides formed from identified portions of AIFm, histone H3, and BSA in presence of 100 nM purified ^32P-labeled PAR.
(§1) Applicants thereafter repeated the experiments using both wild type and mutant AIFm peptides spanning only amino acids 567-592 instead of full length AIFm and obtained results consistent with those using full-length AIF. […] The double amino acid mutant Dm (corresponding to only amino acids 567-592 of AIF-Dm so as to consist of SEQ. ID NO. 16) bound PAR. […] Thus, it is preferred in embodiments of the invention when conducting genetic manipulations to convert at least three target basic amino acids in the PBM to hydrophobic amino acids.

PAR [2] = experiment: nitrocellulose saturation binding experiments
Text: as §1
The PAR polymer binding properties of the mutant Pbm-AIF was then measured using full-length recombinant His-WT-AIF and His tagged Pbm-AIF (“His-Pbm-AIF”) via a series of nitrocellulose saturation binding experiments. Similar experiments were also conducted for the shorter peptides Dm and Tm in comparison to WT. FIG. 10B through FIG. 10D comprise charts reporting data from these various experiments. With regard to the shorter peptides, Applicants determined that the binding affinity constant (“Kd”) and maximum binding capacity (“Bmax”) of these AIF mimetic peptides and the results are reported in the chart of FIG. 10B. […] FIG. 10D comprises a Scatchard plot (95% confidence interval) of the results.

PAR [3] = experiment: PAR overlay assay of full length AIF and mutants; type: binding
Experimental: (§2) The following experiment was performed to confirm whether AIF in fact binds to PAR. Applicants performed 3 trials of an overlay assay on recombinant AIF with affinity-purified biotin-labeled PAR. Histone H3, which binds to PAR with high affinity, was included as a positive control and bovine serum albumin (“BSA”) was included as a negative control, as described by P. Chang et al. (Nat Cell Bio, 2005). FIG. 1B depicts three photos side by side for gels representative of all trials for these overlay assays. […] Thus, Applicants took the results of these two tests as confirming that AIF binds to PAR in vitro.
To further study these potential AIF PBMs, Applicants performed the following experiment to examine the effect of mutating AIFm amino acids 222-244, 441-463, and/or 567-592 to poly-alanine on the ability of AIF to bind PAR. FIG. 6 comprises black and white photographs of representative gels from an overlay assay of His-tagged WT-AIF, AIFm222-244, AIFm441-463, AIFm567-592, AIFΔ567-592 (i.e., a mutant lacking AAs 567-592), and AIF(K254A, R264A) (i.e., mutating K to A at 254 and R to A at 264) mutants with ^32P-labeled automodified PARP-1 (equivalent to 100 nM of PAR), purified ^32P-labeled PAR (100 nM), or purified ^32P-labeled PAR with either a 100-fold excess of DNA or cold PAR. […] The same can be assumed to corresponding sequences for other species, such as those identified in FIG. 4.
Additionally, to exclude the possibility that PAR polymer is binding to AIF through its DNA-binding domain, PAR polymer binding was assessed against the full length AIF DNA-binding mutant AIFK254A;R264A as described by H Cande et al. (Nat Struct Biol, 2002).
Finally, Human AIF (“AIFH”) is known to bind to DNA through a groove between the FAD-binding domain (“D1”) and C-terminal domain (“D3”). A mutant form of AIFH in which lysine 255 is substituted with alanine and arginine 265 is substituted with alanine (AIFK255A;R265A) completely lacks DNA binding. To investigate the possible contribution of the AIF DNA-binding domain to PAR binding, Applicants assessed PAR binding to AIFm mutated in the same way (AIFK254A;R264A). […] Thus, Applicants concluded that the AIF PAR-binding site is separable from its DNA-binding site, meaning that such binding could be inhibited by genetically modifying AIF without impacting the natural DNA binding capabilities of AIF or potentially by otherwise inhibiting the binding action of the PBMs.

PAR [4] = experiment: EMSA with 32P-labeled PAR; type: binding
Experimental: as §2
(§3) To further ascertain whether full length recombinant AIF-Tm produced above (henceforth named “Pbm-AIF”) binds PAR, Applicants performed three iterations of an EMSA assay for PAR binding with recombinant WT-AIF and Pbm-AIF, using histone H3 as a control. […] FIG. 9 comprises a black and white photograph of EMSA gels showing representative results for WT-AIF and Pbm-AIF using ^32P-labeled PAR.

PAR [5] = experiment: in vitro PAR-binding assay, twenty percent TBE-PAGE analysis
Experimental: To begin, 300 nM of purified WT-AIF or Pbm-AIF (i.e., AIF mutated in its PAR binding region) were incubated with ^32P-labeled PAR for 10 minutes at room temperature. Thereafter, samples were incubated with AIF antibody-linked protein G slurry for 1 hour. Samples were washed two times with PBS and boiled with 1× Laemmli sample buffer (obtained from BIO-RAD). Each soluble fraction was resolved in 20% TBE-PAGE. The gel was heat dried and developed using the Typhoon 9400 Imager.
as §3

PAR [6] = experiment: biotin-labeled PAR pull-down assay; type: binding; details: biotin-labeled PAR-conjugated NeutrAvidin beads
Text: To confirm that Pbm-AIF fails to bind PAR, Applicants also performed four trials of biotin-labeled PAR pull-down assays on WT-AIF, Pbm-AIF, and histone H3. For this experiment, the pull-down assay used biotin-labeled PAR-conjugated NeutrAvidin beads. FIG. 10A comprises a composite black and white photograph depicting typical gels obtained in this pull-down assay.

isolated HeLa nuclei = experiment: nuclear shrinkage assay; type: biochemical; details: non-tagged proteins incubated with isolated HeLa nuclei
Experimental: Nuclei were obtained by purification from HeLa cells as described previously by A. Mandir et al. (J Neurosci, 2000). For the assay, purified nuclei were incubated with recombinant WT-AIF or Pbm-AIF (20 ng/ml) in the presence of ATP (2 mM), phosphocreatine (20 mM) and creatine kinase (50 μg/ml) for 90 minutes at 37° C. Nuclei were stained by DAPI and examined by fluorescence microscopy.
FIG. 11D comprises an array of color photographs showing the result of fluorescence microscopy for various cultures, as labeled in the figure, following DAPI staining. […] FIG. 11E is a chart reporting the result of a quantification of nuclei treated by WT-AIF, Pbm-AIF, and control (“CTL”), using Caspase 3 as a positive control.

isolated mitochondria = experiment: AIF binding to isolated mitochondria
Experimental: One commonly accepted estimate is that approximately 20%-30% of AIF resides on the cytosolic side of the outer membrane of mitochondria, where it is poised to be rapidly released by PAR following PARP-1 activation. Applicants thus wanted to perform tests of AIF binding to mitochondria determine how readily purified WT-AIF and Pbm-AIF bind to mitochondria in a time- and concentration-dependent manner. Specifically, recombinant WT-AIF (2.5 ng/μl) and Pbm-AIF (2.5 ng/μl) were incubated with isolated mitochondria (200 μg/ml) for 1 minute, 5 minutes, 10 minutes, 15 minutes, 20 minutes or 30 minutes. […] The results of this portion of the experiment is provided by the graph of FIG. 15B.
To investigate the mechanism underlying mitochondrial AIF release following PARP-1 activation, Applicants incubated isolated mitochondria with purified non-tagged forms of AIF in the presence or absence of PAR and followed this by centrifugation to remove the mitochondria. Detection of AIF remaining in the supernatant was thereafter performed through immunoblot analysis.
The supernatant collected in the experiments of Example 16 were also analyzed for the presence of Tom20 and cyclochrome c.

DNA = DNA retardation assay; type: binding; details: DNA (200 ng), 30 minutes
Experimental: AIF binding-mediated DNA mobility retardation was performed as described by H. Cande et al. (Nat Struct Biol, 2002). Recombinant His-tagged AIF (10 μg or 25 μg) was incubated with 1 kb DNA molecular weight marker (obtained from Fermentas) for 30 minutes at room temperature and loaded on 2.5% agarose gel prestained with ethidium bromide (1 μg/ml). Mobility shift was visualized under the Alpha Innotech UV illuminator.
Further, a DNA retardation assay of His-WT-AIF and His-Pbm-AIF was conducted by incubating both with DNA (200 ng) for 30 minutes, using BSA as a negative control.

[7] = PAR binding, saturation binding
[8] = PAR binding, saturation binding, ligand binding program of Sigma plot, read-out: Kd

Molecule: amino acids 567-592 of AIF-Dm, SEQ. ID NO. 16 LRDKVVVGIVLWNVFNRMPIAAAIIK (mouse) [Dm peptide]
- binding to 32P-labeled automodified PARP-1 or 32P-labeled purified PAR (PAR [1]): bound PAR
- Bmax (PAR [2]; [7]): 3.97 pmol
- Kd (PAR [2]; [8]): 3300 nM

Molecule: amino acids 567-592 of AIF-Tm, SEQ. ID NO. 17 LRDKVVVGIVLWNVFNRMPIAAAIIA (mouse) [Tm peptide]
- binding to 32P-labeled automodified PARP-1 or 32P-labeled purified PAR (PAR [1]): failed to bind
- Bmax (PAR [2]; [7]): 1.77 pmol
- Kd (PAR [2]; [8]): 107000 nM
- PAR binding in saturation binding experiments (PAR [2]; result in words): clearly reduced PAR binding

Molecule: peptide composed of AIFm amino acids 222-244: peptide of mouse AIF amino acids 222-244, SEQ. ID NO. 1 (GGVAVLTGKKVVHLDVRGNMVKL; mouse)
- binding to PAR (PAR [1]): bound less well

Molecule: peptide composed of AIFm amino acids 441-463: peptide of mouse AIF amino acids 441-463, SEQ. ID NO. 5 (FYDIKLGRRRVEHHDHAVVSGRL; mouse)
- binding to PAR (PAR [1]): failed to bind PAR appreciably

B1: WT-AIF: full length wild type mouse AIF (apoptosis-inducing factor), recombinant (protein)
chain: MFRCGGLAGAFKQKLVPLVRTVYVQRPKQRNRLPGNLFQQWRVPLELQMARQMASSGSSGGKMDNSVLVLIVGLSTIGAGAYAYKTIKEDQKRYNERVMGLGLSPEEKQRRAIASATEGGSVPQIRAPSHVPFLLIGGGTAAFAAARSIRARDPGARVLIVSEDPELPYMRPPLSKELWFSDDPNVTKTLQFRQWNGKERSIYFQPPSFYVSAQDLPNIENGGVAVLTGKKVVHLDVRGNMVKLNDGSQITFEKCLIATGGTPRSLSAIDRAGAEVKSRTTLFRKIGDFRALEKISREVKSITVIGGGFLGSELACALGRKSQASGIEVIQLFPEKGNMGKILPQYLSNWTMEKVKREGVKVMPNAIVQSVGVSGGRLLIKLKDGRKVETDHIVTAVGLEPNVELAKTGGLEIDSDFGGFRVNAELQARSNIWVAGDAACFYDIKLGRRRVEHHDHAVVSGRLAGENMTGAAKPYWHQSMFWSDLGPDVGYEAIGLVDSSLPTVGVFAKATAQDNPKSATEQSGTGIRSESETESEASEITIPPSAPAVPQVPVEGEDYGKGVIFYLRDKVVVGIVLWNVFNRMPIARKIIKDGEQHEDLNEVAKLFNIHED
- effect of hundred fold excess of salmon sperm DNA on PAR binding (PAR [3]; overlay assay, 32P-labeled PAR): fails to disrupt
- binding to biotin-labeled PAR (PAR [3]; overlay assay, affinity-purified biotin-labeled PAR): bound to biotin-labeled PAR in a concentration-dependent manner
- effect of salmon sperm DNA on PAR binding (PAR [3]; salmon sperm DNA at 760 μM): failed to disrupt PAR binding
- PAR mobility shift (PAR [4]): caused a PAR mobility shift in a concentration-dependent manner
- PAR mobility shift (PAR [4]; listed as AIFm): cause a shift of PAR polymer
- binding to 32P-PAR (PAR [5]): bound to ^32P-PAR of different lengths
- pull-down with biotin-labeled PAR (PAR [6]): pulled down with biotin-labeled PAR
- chromatin condensation and nuclear shrinkage (isolated HeLa nuclei): comparable levels of chromatin condensation and nuclear shrinkage
- binding to mitochondria versus concentration (isolated mitochondria; 0.1 ng/μl to 120.5 ng/μl, 30 minutes, room temperature): bound to the mitochondria in a concentration dependent manner
- binding percentage to mitochondria over time (isolated mitochondria; 2.5 ng/μl, mitochondria 200 μg/ml, after 5 minutes): equivalent
- effect of PAR on association with mitochondria (isolated mitochondria; 5 nM PAR): failed to affect association
- effect of PAR on association with mitochondria (isolated mitochondria; 50 nM PAR): increased the concentration of WT-AIF in the supernatant
- effect of PAR on association with mitochondria (isolated mitochondria; 100 nM PAR): almost completely abolished
- depletion from the supernatant by mitochondria (isolated mitochondria; untreated mitochondria, absence of PAR): effectively depleted

B2: His-WT-AIF: full-length recombinant His-tagged wild type mouse AIF (protein)
chain: B1 chain
modifications: left off: small tags and cut ends
- Bmax (PAR [2]; [7]): 200.83 pmol
- Kd (PAR [2]; [8]): 100 nM
- Bmax (PAR [2]; specific binding (His-Pbm-AIF values subtracted), Scatchard analysis): 116.208 pmol
- Kd (PAR [2]; specific binding (His-Pbm-AIF values subtracted), Scatchard analysis, read-out: calculated Kd): 66.3 nM
- DNA-binding properties (DNA): comparable
